Measurements as given in the supplement of paper PMC9170038.

System: MS2 coat protein
Assay: apparent KD of MS2 coat protein; designed switch direction (-1 OFF switch, 1 ON switch): -1; higher = weaker reporter binding
In short: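 Transcription of designed RNA switches on Illumina chips was done by stalled E. coli RNA polymerase. SNAP-549-labelled MS2 coat protein was then titrated in doubling steps from 0.7 or 1.5 nM to 3 µM, with steps of 0.8–1.5 h at the lowest and 10–20 min at the highest concentration. The per-design median over clusters of curve-fitted normalised fluorescence is reported as apparent KD.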

[1] = input ligand: microRNA oligo, concentration not stated
[2] = Eterna round: R95, input ligand: microRNA oligo, concentration not stated
[3] = Eterna round: R95, input ligand: FMN 200 uM
[4] = Eterna round: R95, input ligand: none

Sequence | apparent KD of MS2 coat protein (input ligand: FMN 200 uM) | apparent KD of MS2 coat protein (input ligand: none) | also measured
GUUUACAAGCUAAGAUCCUACAUGAGGAUCACCCAUGUGGUCCGGUGACGUGAGUCACCGGACUUAGCUCGUCUUGA [salish99_S_TOV1_R5_092] (Eterna round: R97, puzzle: Sensor, turn-off variant 1) | 32.4 nM | 31 nM | 
AUUGUUUGAUACCUCUAAUACAUGAGGAUCACCCAUGUUAUCGAGGAUAUGCAGAAGAGAGGAGAGCAGAAGGCGAAGUAAGAG [JR_ExcNG3_Sub027] (Eterna round: R96, puzzle: Exclusion NG 3) | 21.5 nM | 19.6 nM | apparent KD of MS2 coat protein [1]: 15.9 nM
ACUAGAUGAGGAUAUGCAUAUUUUCGUGUUCUUCUAGAUUAACAUGAGGAUCACCCAUGUAGAAGGCGUCAAUA [Exclusion 2 - 15] (puzzle: Exclusion 2) |  |  | apparent KD of MS2 coat protein [2]: 15.4 nM
CAUUCCUAGCGAGGAUAUCAGUAAAAGGGAAGCUGAGAAGGCGCAAACAUGAGGAUCACCCAUGUCACACGCGGGUAGUUUUCC [Uslazaxe] (Eterna round: R96, puzzle: Exclusion NG 1) | 16.2 nM | 14.3 nM | apparent KD of MS2 coat protein [1]: 10.8 nM
GUAAACGUAUAGGAUAUUUCAGGUCAAAGCUGCAAAGAAGGAUGCACAUGAGGAUCACCCAUGUGGUCAAUAAA [Mod of Quesina 24 - Jieux - Exclusion 6] (Eterna round: R97, puzzle: Exclusion 6) | 25.7 nM | 22.2 nM | 
GCUGGACAAGGAUAUACAUGAGGAUCACCCAUGUGAUCAGCAGUCCUCGGACUGCAAUGUAGAAGGUGUCCAGC [E3/1-C2] (Eterna round: R97, puzzle: Exclusion 3) | 38.9 nM | 198 nM | 
UGGGUUACAGGAUAUACAUGAGGAUCACCCAUGUCAUGUUUCGUGGCGGAUAGCUCGAGUAGAAGGGUGCAUCC [Diorus] (puzzle: Exclusion 3) |  |  | apparent KD of MS2 coat protein [2]: 36.6 nM
AGCCACAGAGGAUAUACAUACAUCCAGUAGCAGAUAUUGCUACAUGAGGAUCACCCAUGUAGAAGGCUGUGGCA [Omei Ex2 BD B21] (Eterna round: R97, puzzle: Exclusion 2) | 139 nM | 1040 nM | 
AGCUGUGGCCGAGGAUAUCUAACUUCAAUAACCGAAAUAUAAUCGGACAUGAGGAUCACCCAUGUAGAGAAGGCGGUCUCAGCA [Eli eng2 - 082] (Eterna round: R96, puzzle: Exclusion NG 2) |  |  | apparent KD of MS2 coat protein [1]: 10.7 nM
AGAGAGUCAGGAUAUGACGAAGAGAACAUGAGGAUCACCCAUGUAGCUUCGUAAUUAUCGUCAGAAGGGACGAACU [JR_Ex5_Sub089] (Eterna round: R97, puzzle: Exclusion 5) | 15.7 nM | 14.2 nM | 
AAGUCUGGUGUAAGGAUAUUGUUAGACUUGGUGAGCAAGAAGGUACAUGAGGAUCACCCAUGUGGGAUACUAGC [Eternabot (Original) Solution 41] (Eterna round: R97, puzzle: Brourd's mod of Exclusion 4) | 40.5 nM | 40 nM | 
GAAAAGGUAGGAUAUACGAAAAAAAAGGGCAGAAAAAAAACACAUGAGGAUCACCCAUGUAGAAGGACCAAAAG [salish99_ex2_r3_065] (puzzle: Exclusion 2) |  |  | apparent KD of MS2 coat protein [3]: 26.6 nM; apparent KD of MS2 coat protein [2]: 24.3 nM; apparent KD of MS2 coat protein [4]: 23.2 nM
AAAUUCUGAGGAUAUCGAUGUUUGUACAUGAGGAUCACCCAUGUCCUUUUUAUUUAAUCCCGAGAAGGCAGUGUAU [JR_E5_Sub098] (puzzle: Exclusion 5) |  |  | apparent KD of MS2 coat protein [2]: 32.6 nM
ACAUGUUAUCCAUGAUAUCACAUGAGGAUCACCCAUGUUAUGGCGAUUUUGAGGUGUAAGCUUUGUGCUCGACUUAU [JR_STOV1_Sub056] (Eterna round: R97, puzzle: Sensor, turn-off variant 1) | 45 nM | 50 nM | 
CGUGGACUAGGAUAUUUACGAGGCUACAUGAGGAUCACCCAUGUGUUCUCGAGUACCAUGAAAGAAGGAGUAGCGA [Betiatte] (puzzle: Exclusion 5) |  |  | apparent KD of MS2 coat protein [2]: 12 nM
GUUAAGGUAGGAUAUACGAUAAGAUAGGGUAGAUAUAUAACACAUGAGGAUCACCCAUGUAGAAGGACCAAUUG [Mat - Exclusion 2 - Mod of my Tesla design - D56] (puzzle: Exclusion 2) |  |  | apparent KD of MS2 coat protein [2]: 29.2 nM
AAUAACAGAGGAUAUACUAUUUUAUGUGUUUAUUGUUUUAAACAUGAGGAUCACCCAUGUAGAAGGCUGAUUGA [JMF 73] (puzzle: Exclusion 2) |  |  | apparent KD of MS2 coat protein [2]: 65.5 nM
UUUAAGUCAGGAUAUCGUUAAUUUAAUAAAUAAAUUUAAUUCGAGAAGGGACAUGAGGAUCACCCAUGUAAUUU [Ex4 #1] (Eterna round: R97, puzzle: Exclusion 4) | 45.5 nM | 34.8 nM | 

Sequence | apparent KD of MS2 coat protein (input ligand: FMN 200 uM) | apparent KD of MS2 coat protein (input ligand: none) | also measured
GAUUAUGCGAGCUUUAGGGACAUGAGGAUCACCCAUGUUCGUCUUAUUGAUCUAAGUGCACUAACAUACCUAAAUCU [JMF 29] (puzzle: Sensor v3, turn-off variant 1) |  |  | apparent KD of MS2 coat protein [3]: 25.1 nM; apparent KD of MS2 coat protein [2]: 53.7 nM; apparent KD of MS2 coat protein [4]: 27 nM
GGACCUGGAGGAUAUAGAGCACUGAACAUGAGGAUCACCCAUGUGACCGGUGUAGUGCACCUAGAAGGCCGCGGCA [Eternabot (L1) Solution 40] (Eterna round: R97, puzzle: Exclusion 5) | 129 nM | 65.4 nM | 
AAUAACAAGCCGAUCCUAAACAUGAGGAUCACCCAUGUGCUCGUCUUGUAAAGUACUAUCACGAAAGUGAUAGUACA (Eterna round: R97, puzzle: Sensor, turn-off variant 1) | 24.5 nM | 18 nM | 
CACCGUUACUGAGGAUAUCUUACAUGAGGAUCACCCAUGUAAUAAAUGAGAAUUUCGGAUGUAUUAGAGAAGGCAGAAAUCGGC [Ostricism 61 - Jieux - Exclusion NG 2] (Eterna round: R96, puzzle: Exclusion NG 2) | 22.6 nM | 23.9 nM | apparent KD of MS2 coat protein [1]: 16.3 nM
UUAAAUCAUGUAGGAUAUGCGUGGCAAAGCUAUGCAGAAGGACAUGAGGAUCACCCAUGUUCUAGCGUCUGAGAACAGAUGCUA [Mat - Exclusion NG 1 - Mod of JL - D78] (Eterna round: R96, puzzle: Exclusion NG 1) | 566 nM | 47.7 nM | apparent KD of MS2 coat protein [1]: 24.2 nM
GGUCGUAGACAGGAUAUGCGGCAAAUAAAUAAAGCAGAAGGGUCUACUUGAGGAUCACCCAAGUGGGCGGUUAA [jl-ex6-4.18 ViennaUCT mod] (Eterna round: R97, puzzle: Exclusion 6) | 103 nM | 17.7 nM | 
AGCGAAAAGGCAGGAUAUGAGAAUAGAUAGAGCUCAGAAGGGCCACAUGAGGAUCACCCAUGUAAAGUCUUGAGGCUGCGUGGU [Prohibition 12 - Jieux - Exclusion NG 1] (Eterna round: R96, puzzle: Exclusion NG 1) | 488 nM | 60.4 nM | apparent KD of MS2 coat protein [1]: 68.4 nM
UUCCUCAGCUAGGAUAUCAAGGCACCACCCUAAUGAGAAGGAGCAACAUGAGGAUCACCCAUGUGGGUUUCUUA [Aterre] (Eterna round: R97, puzzle: Exclusion 6) | 143 nM | 54.9 nM | 
CGGGACGUCCUGAUAAUAAGACAUGAGGAUCACCCAUGUCGGCAGGAUAUCAGUCCUUACGGUUAUGAGAAGGGUCGGCAACCA [Quatis] (Eterna round: R96, puzzle: Exclusion NG 3) | 10.9 nM | 11.6 nM | apparent KD of MS2 coat protein [1]: 9.05 nM
UGAGCUUCAGGAUAUACGUGACGUCCGUGAGGACGAAGGUUACAUGAGGAUCACCCAUGUAGAAGGGAAGUUCU [Mat - Exclusion 2 - JL Mod - D31] (Eterna round: R97, puzzle: Exclusion 2) | 60.8 nM | 31.6 nM | 
UUGAUGUGAGGAUAUAUUUAGUGUUUUCUUUAUGUUUUAUAACUUGAGGAUCACCCAAGUAGAAGGCGCUACGU [JR_Ex2_Sub066] (Eterna round: R97, puzzle: Exclusion 2) | 19 nM | 13.9 nM | 
CAGUACUGAGGAUAUACAUGAGGAUCACCCAUGUUUUCCAGCUAGGAAACUAGCAAGUGUAGAAGGCAGUACUG [Salish 065 m6] (Eterna round: R97, puzzle: Exclusion 3) | 342 nM | 25.6 nM | 
AGGUGUAGAGGAUAUACAGUGUAUUACAUGAGGAUCACCCAUGUCCUUCAAUGGGUGUCAGUAGAAGGCUACACCA [Omei Ex5 C2] (Eterna round: R97, puzzle: Exclusion 5) | 255 nM | 1660 nM | 
GAGCAGCGAGGAUAUACAGACGGGUCCAGUACGUGUCUUGGACUUGAGGAUCACCCAAGUAGAAGGCGCCACAG [salish99_ex2_r4_605] (Eterna round: R97, puzzle: Exclusion 2) | 42.6 nM | 25.8 nM | 
AUAAAUCAUGUAGGAUAUGCGUGGCAAAGCUAUGCAGAAGGACAUGAGGAUCACCCAUGUUCUUCCGUCUGCGUACAGACGGAA [Mat - Exclusion NG 1 - Mod of JL - D40] (Eterna round: R96, puzzle: Exclusion NG 1) | 418 nM | 37.3 nM | apparent KD of MS2 coat protein [1]: 31.4 nM
AUAAAGUGAGGAUAUCCAAUAUAUGACAUGAGGAUCACCCAUGUUUCCACUCGUACCUCCGGAGAAGGCACAAAAU [Ex5 #61] (Eterna round: R97, puzzle: Exclusion 5) | 24.5 nM | 30.5 nM | 
GUAAUUAUAUAGGAUAUCGAUUUUAUUAUUUAACGAGAAGGAUGAACAUGAGGAUCACCCAUGUGGUAUCAUGG [JL-ex6-3.05] (puzzle: Exclusion 6) |  |  | apparent KD of MS2 coat protein [2]: 138 nM
